Common to all, as to type: cell-based, human
Assay [1] concerns MDA-MB-231 cells. Description: Endocytosis capacity of murine monoclonal antibody (flow cytometry internalization). The note with it: antibody 1.5 μg/mL; for Internalization MDA-MB-231 (%) 0.5 h: MDA-MB-231, 0.5 h at 37° C.; for Internalization MDA-MB-231 (%) 1 h: MDA-MB-231, 1 h at 37° C.; for Internalization MDA-MB-231 (%) 2 h: MDA-MB-231, 2 h at 37° C. A digest of the protocol: (§1)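 MDA-MB-231 and PC3 cells (EDTA-detached, Fc-blocked) bound with 1.5 μg/mL test antibody at 4° C for 30 min, washed, then held at 37° C for 0.5, 1 or 2 h. Surface antibody detected with PE anti-human IgG Fc by flow cytometry; internalization (%) = (Geo-MFI 0 h − Geo-MFI at time point)/Geo-MFI 0 h × 100%.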
On the technique in general: Flow cytometry measures light scatter and fluorescence of single cells or particles in a stream.

Another assay concerns PC3 cells. The description is as above. The note with it: antibody 1.5 μg/mL; for Internalization PC3 (%) 0.5 h: PC3, 0.5 h at 37° C.; for Internalization PC3 (%) 1 h: PC3, 1 h at 37° C.; for Internalization PC3 (%) 2 h: PC3, 2 h at 37° C. The procedure, abridged: as §1
The test system of assay [2] is MDA-MB-231 cells. The assay is described as follows: Effect of antibody on tumor cell proliferation (CellTiter-Glo). The note with it: MDA-MB-231, 96 h. How it is done: (§2) 3000 cells (breast cancer MDA-MB-231, prostate cancer PC-3 cells)/well were plated onto 96-well plates overnight, an antibody at a final concentration of 500 nM to 0.00128 nM (100 nM to 0.000256 nM, 100, 20, 4, 0.8, 0.16, 0.032, 0.0064, 0.00128, 0.000256 nM, respectively) was added; after a 5-fold dilution across 9 concentration points and culturing in a CO2 incubator at 37° C. for 96 h, half of the medium (100 μL) was discarded, and 100 μL of CellTiter-Glo Luminescent Cell Viability assay reagent (Promega, cat #G7570) was added to detect signal values on a BMG microplate reader. The inhibition of antibody on tumor cell growth was calculated by graphpad fitting based on the signal value and antibody concentration.

The subject of a further assay is PC-3 cells. Described as above. Conditions: PC-3, 96 h. As for the experimental part:
as §2

Assay [3] relates to MDA-MB-231 cells. Description: Transwell tumor cell migration experiment. Conditions: MDA-MB-231, antibody 10 μg/ml. How it is done:
In order to determine the effect of antibodies on tumor cell metastasis, the migration ability of tumor cells was examined in this study according to a transwell experiment. The specific cell migration experiment involved culturing and collecting MDA-MB-231 cells, washing them once with PBS, adjusting the density to 8×10^5 cells/mL, adding the antibody to be tested to the cells such that the working concentration thereof was 10 μg/ml, co-incubating for 30 mins, adding a cell suspension to the upper chamber of the transwell chamber, placing the transwell chamber in the incubator for 12-48 h, then removing the chamber (transwell chamber, to examine cell migration ability), immobilizing the cells, staining the cells with crystal violet for 15 mins, washing, air drying, mounting, and taking photos of 4-5 fields of view under a microscope, and counting the number or area of the stained cells using imageJ analysis software, the number or area was used as the basis for determining tumor cell migration.

Assay [4] deals with MDA-MB-231 cells. The assay is described as follows: Endocytosis capacity of single B cell antibodies. The note with it: MDA-MB-231, 2 h at 37° C., antibody 1.5 μg/mL. How it is done: The endocytosis capacity of the antibody was detected for 0.5 to 2 hours. MDA-MB-231 cells were subjected to digestion with 5 mM EDTA, and plated at 2×10^4 cells/well after cell counting. After adding an Fc blocker (Human TruStain FcX™, Biolegend, 422302) and blocking at room temperature for 10 mins, a test antibody (1.5 μg/mL) was added, and the mixture was incubated at 4° C. for 30 mins, centrifuged, and washed twice with PBS+2% FBS, then the cells were divided into four equal portions (labeled as 0 h, 0.5 h, 1 h, 2 h), cells labeled as 0.5 h, 1 h, 2 h time points were added to 200 μL of cell culture medium, and cultured at 37° C. for 0.5 h, 1 h, 2 h, respectively. Cells at 0 h point were centrifuged, a secondary antibody (PE anti-human IgG Fc Antibody, Biolegend, 410708) was added, and the mixture was incubated at 4° C. for 30 mins, centrifuged, and washed twice with PBS+2% FBS, and detection was performed using a flow cytometer. After incubation of cells labeled as 0.5 h, 1 h, and 2 h points at 37° C. was completed, a secondary antibody was added (in the same steps as those at 0 h point), Geo-MFI of the signal under the same voltage was collected as detection signal at 0 h, and antibody internalization rate was calculated according to the following equation: Internalization (%)=(Geo-MFI (0 h)-Geo-MFI (2 h))/Geo-MFI (0 h)×100%.

B1: G10F6: anti-CDCP1 murine monoclonal antibody (hybridoma); VH SEQ ID NO: 256, VL SEQ ID NO: 306 (antibody, V domains shown)
VH: EVKLVESGPGILQPSQTLSLTCSFSGFSLSTSGMGVSWVRQPSGKGLEWLAHIYWDDDKRYNPSLKGRLTISKDTPRNQVFLEITSVDTTDTATYYCARVPGNWDEDAMDYWGQGTTVTVSS
VL: DIQMTQSPLSLPVSLGDQASISCRSSQNIVHTNGNTYLEWYLQKVGQSPKLLIYKVSNRFSGVPDRFSGSGSGTDFTLKISRVEAEDLGVYYCFQGSHVPYTFGGGTKLEIK
modifications: G10F6 heavy chain variable region; G10F6 light chain variable region
For B1, in the assay on MDA-MB-231 cells [1], the “Internalization MDA-MB-231 (%) 0.5 h” value is given as 34.49%, the “Internalization MDA-MB-231 (%) 1 h” value stood at 50.70% and the “Internalization MDA-MB-231 (%) 2 h” value stood at 67.02%. Moreover, in the assay with PC3 cells, the “Internalization PC3 (%) 0.5 h” value worked out at 3.36%, the “Internalization PC3 (%) 1 h” value is reported as 20.68% and the “Internalization PC3 (%) 2 h” value was 54.36%. Moreover, the “effect on tumor cell growth (FIG. 4a)” value in the assay on MDA-MB-231 cells [2] is “did not exhibit an effect on tumor cell growth”. Moreover, the “effect on tumor cell growth (FIG. 4b)” value with PC-3 cells was “did not exhibit an effect on tumor cell growth”. For the same molecule, in the assay on MDA-MB-231 cells [3], the “effect on tumor cell migration (transwell, FIG. 4c)” value (shortened to “effect on tumor cell migration”) was “better capability to inhibit tumor cell migration than SEQ135”.

B2: SB4: anti-CDCP1 antibody by single B cell technique; VH SEQ ID NO: 274, VL SEQ ID NO: 324 (antibody, V domains shown)
VH: QVQLQQSGAELVRPGTSVKISCKASGYTFTNYWLGWVKQRPGHGLEWIGDNYPGDNYRNFNEKFKGKATLTTDASSSTAYLQLSSLISEDSAVYFCTRSGGSRYYTMDYWGQGTSVTVSS
VL: DIVMTQAAFSNPVTLGTSASISCRSSRSLLHNNGITYLYWYLQKPGQSPQLLIYQMSNLASGVPDRFHSSGSGTDFTLSISRVEAEDVGVYYCAQNLDLPYTFGGGTKLEIK
modifications: SB4 heavy chain variable region; SB4 light chain variable region
B2: the “Internalization MDA-MB-231 (%)” value in the assay with MDA-MB-231 cells [4] worked out at 83.16%.

B3: 3C11: anti-CDCP1 murine monoclonal antibody (hybridoma); VH SEQ ID NO: 240, VL SEQ ID NO: 291 (antibody, V domains shown)
VH: EVQLQQSGTVLARPGASVKMSCKASGYNFISYWLHWIKQRPGQGLEWIGGIYPGNTDTTYNQKFKGKAKVTAVTSATTAYMELSSLTNEDSAVYYCIRYDYDRGMDYWGQGTTVTVSS
VL: DIQMTQSPSSFSVSLGDRVTITCRASEDIYYRLAWYQQKPGNAPRLLISGATALETGVPSRFSGSGSGKDYTLSITSLQTEDVATYYCQHYWNIPWTFGGGTKLEIK
modifications: 3C11 heavy chain variable region; 3C11 light chain variable region
For the molecule B3, in the assay on MDA-MB-231 cells [1], the “Internalization MDA-MB-231 (%) 0.5 h” value amounted to 28.50%, the “Internalization MDA-MB-231 (%) 1 h” value is on record as 36.16% and the “Internalization MDA-MB-231 (%) 2 h” value is given as 52.23%. Moreover, in the assay on PC3 cells, the “Internalization PC3 (%) 0.5 h” value stood at 28.45%, the “Internalization PC3 (%) 1 h” value stood at 39.70% and the “Internalization PC3 (%) 2 h” value worked out at 59.90%. The “effect on tumor cell growth (FIG. 4a)” value in the assay on MDA-MB-231 cells [2] was “did not exhibit an effect on tumor cell growth”. Besides, in the assay on PC-3 cells, the “effect on tumor cell growth (FIG. 4b)” value is on record as “did not exhibit an effect on tumor cell growth”. Further, the “effect on tumor cell migration” value in the assay on MDA-MB-231 cells [3] is on record as “better capability to inhibit tumor cell migration than SEQ135”.

B4: 3B12H5: anti-CDCP1 murine monoclonal antibody (hybridoma); VH SEQ ID NO: 239, VL SEQ ID NO: 290 (antibody, V domains shown)
VH: EVQLQQSGTVLARPGASVKMSCKASGYSFTIYWVHWVKQRPGQGLEWIGAVYPGNDDTSYNQNFKGKAKLTAVTSATTAYMELSSLTIDDSAVYYCTRHTYDEVFDYWGQGTTVTVSS
VL: DIVMTQSPSSLSVSLGDRVTITCKASEDIYYRLAWYQQKPGNAPRLLISGGTNLEAGIPSRFSGSGSGKDYTLSITSLQTEDVAIYYCQHYWNTPWTFGGGTKLEIK
modifications: 3B12H9/3B12H5 heavy chain variable region; 3B12H5 light chain variable region
On to B4, for which, in the assay with MDA-MB-231 cells [1], the “Internalization MDA-MB-231 (%) 0.5 h” value turned out to be 20.76%, the “Internalization MDA-MB-231 (%) 1 h” value is given as 29.93% and the “Internalization MDA-MB-231 (%) 2 h” value was 49.69%. Further, in the assay on PC3 cells, the “Internalization PC3 (%) 0.5 h” value came out at 16.54%, the “Internalization PC3 (%) 1 h” value is reported as 30.28% and the “Internalization PC3 (%) 2 h” value worked out at 50.50%. For the same molecule, the “effect on tumor cell growth (FIG. 4a)” value with MDA-MB-231 cells [2] is on record as “did not exhibit an effect on tumor cell growth”. For the same molecule, in the assay on PC-3 cells, the “effect on tumor cell growth (FIG. 4b)” value is “did not exhibit an effect on tumor cell growth”. Moreover, the “effect on tumor cell migration” value in the assay on MDA-MB-231 cells [3] is “better capability to inhibit tumor cell migration than SEQ135”.

B5: 8E5: anti-CDCP1 murine monoclonal antibody (hybridoma); VH SEQ ID NO: 258, VL SEQ ID NO: 308 (antibody, V domains shown)
VH: EVQLKESGPELKKPGETVKISCKASGYTLTDFSMHWLKQAPGKGLKWMGWINTETGAPTYADDFKGRFALSLDTSANTAYLQINNLKNEDTATYFCSRGRDYDPHFDYWGQGTTVTVSS
VL: EIVLTQSPATLSVTPGDRVSLSCRASQSISDFLHWYQQRSHESPRLLIKYASQSISGIPSRFGGSGSGSDFTLNINTVEPEDVGMYYCQSAHSFPYTFGGGTKLEIK
modifications: 8E5 heavy chain variable region; 8E5 light chain variable region
As to B5, in the assay with MDA-MB-231 cells [1], the “Internalization MDA-MB-231 (%) 0.5 h” value amounted to 24.32%, the “Internalization MDA-MB-231 (%) 1 h” value came out at 38.20% and the “Internalization MDA-MB-231 (%) 2 h” value came out at 53.26%. In the assay with PC3 cells, the “Internalization PC3 (%) 0.5 h” value was determined as 6.54%, the “Internalization PC3 (%) 1 h” value was determined as 17.17% and the “Internalization PC3 (%) 2 h” value amounted to 42.94%. Also, the “effect on tumor cell growth (FIG. 4a)” value with MDA-MB-231 cells [2] is “did not exhibit an effect on tumor cell growth”. The “effect on tumor cell growth (FIG. 4b)” value in the assay with PC-3 cells was “did not exhibit an effect on tumor cell growth”. Further, the “effect on tumor cell migration” value in the assay with MDA-MB-231 cells [3] was “better capability to inhibit tumor cell migration than SEQ135”.

B6: 10D2: anti-CDCP1 murine monoclonal antibody (hybridoma); VH SEQ ID NO: 260, VL SEQ ID NO: 310 (antibody, V domains shown)
VH: EVQLQQSGPELKKPGETVKISCKASGYTFTDYSMHWVKQAPGKGLKWMGWINTETGQPTYADDFKGRFAFSLETSASSAYLQINNLKNEDTATYFCTRTFYYDYVGDYWGQGTTVTVSS
VL: DIVMTQSHKFMSTSVGDRVSITCKASQDVSTAVAWYRQKPGQSPKLLIYWASTRHTGVPDRLTGSGSGTDFALTINSVQAEDLALYYCQQHSSTPYTFGGGTKLEIK
modifications: 10D2 heavy chain variable region; 10D2 light chain variable region
In the case of B6, in the assay on MDA-MB-231 cells [1], the “Internalization MDA-MB-231 (%) 0.5 h” value came out at 46.38%, the “Internalization MDA-MB-231 (%) 1 h” value is recorded as 57.85% and the “Internalization MDA-MB-231 (%) 2 h” value worked out at 70.77%. Moreover, in the assay on PC3 cells, the “Internalization PC3 (%) 0.5 h” value came out at 21.48%, the “Internalization PC3 (%) 1 h” value amounted to 41.99% and the “Internalization PC3 (%) 2 h” value stood at 64.19%. Moreover, in the assay with MDA-MB-231 cells [2], the “effect on tumor cell growth (FIG. 4a)” value is listed as “did not exhibit an effect on tumor cell growth”. The “effect on tumor cell growth (FIG. 4b)” value in the assay with PC-3 cells is listed as “did not exhibit an effect on tumor cell growth”. Besides, the “effect on tumor cell migration” value in the assay with MDA-MB-231 cells [3] is reported as “better capability to inhibit tumor cell migration than SEQ135”.
